Article PMC7644641 (Nature structural & molecular biology, 2020)

Molecular target: RagA:RagC^D181N GTPase heterodimer (UniProt Q7L523 1-313; Q9HB90 1-399, D181N)
Experiment: SEC

Sequence of RagA:RagC^D181N GTPase heterodimer (Q7L523 whole entry, chain 1 of 2): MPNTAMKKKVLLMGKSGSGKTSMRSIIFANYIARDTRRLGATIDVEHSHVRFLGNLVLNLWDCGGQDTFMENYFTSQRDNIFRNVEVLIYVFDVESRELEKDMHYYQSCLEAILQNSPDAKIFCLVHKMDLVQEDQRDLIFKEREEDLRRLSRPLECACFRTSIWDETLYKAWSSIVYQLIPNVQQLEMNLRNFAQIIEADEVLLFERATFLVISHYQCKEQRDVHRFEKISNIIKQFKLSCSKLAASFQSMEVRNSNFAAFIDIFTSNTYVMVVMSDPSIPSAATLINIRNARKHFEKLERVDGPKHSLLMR
Sequence of RagA:RagC^D181N GTPase heterodimer (Q9HB90 whole entry D181N, chain 2 of 2): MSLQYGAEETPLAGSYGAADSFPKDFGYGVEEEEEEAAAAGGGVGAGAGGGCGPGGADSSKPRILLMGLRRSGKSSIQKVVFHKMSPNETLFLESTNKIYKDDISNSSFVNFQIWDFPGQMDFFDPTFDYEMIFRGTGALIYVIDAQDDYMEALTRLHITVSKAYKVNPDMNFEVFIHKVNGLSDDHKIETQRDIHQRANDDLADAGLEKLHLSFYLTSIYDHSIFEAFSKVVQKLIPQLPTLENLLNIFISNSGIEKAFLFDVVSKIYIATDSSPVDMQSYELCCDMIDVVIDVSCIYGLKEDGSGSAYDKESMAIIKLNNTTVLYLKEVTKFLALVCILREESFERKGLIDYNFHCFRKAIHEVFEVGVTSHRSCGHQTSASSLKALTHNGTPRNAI

- binding result: binds
B1: SLC38A9 N-terminal cytoplasmic tail (residues 1–119) (domain or fragment, human, UniProt Q8NBW4 1-119, looked up)
chain: MANMNSDSRHLGTSEVDHERDPGPMNIQFEPSDLRSKRPFCIEPTNIVNVNHVIQRVSDHASAMNKRIHYYSRLTTPADKALIAPDHVVPAPEECYVYSPLGSAYKLQSYTEGYGKNTS
